B1: Heterogeneous nuclear ribonucleoprotein U-like protein 2, residues 1 to 40; numbered along this chain, Q1KMD3 (parent)
chain: MEVKRLKVTELRSELQRRGLDSRGLKVDLAQRLQEALDAE
B2: Tripartite motif-containing protein 6, residues 93 to 134; numbered along this chain, Q9C030 (parent)
chain: KAVLCADHGEKLQLFCQEDGKVICWLCERSQEHRGHHTFLVE

Variants of: B1
Assay: abundance fitness (aPCA) (normalised: wild type 0, dead -1); higher = more abundant; growth selection in yeast, the domain comes from the species named
Details: Homo sapiens

Abundance fitness of substitutions, site by site:
M1: D -1.65 | A -0.461 | F -0.179 | C -0.414 | K -0.136 | E -0.08 | G -0.383 | H -1.03

Variants of: B2
Assay: as above
Details: Homo sapiens

Abundance fitness: each site, then its substitutions
C24: P -0.517 | T -0.664 | K -0.615 | D -0.822 | S -0.717 | G -1.16 | E -0.627 | A -0.886 | I -0.753 | W -0.908 | Q -0.748 | R -1.02 | V -1.19 | L -1.1 | Y -0.725
E28: D -0.101 | G -0.197 | T 0.059 | K -0.062 | C -0.494 | V -0.19 | S -0.116 | A -0.218 | H -0.481 | Q -0.124 | M -0.326 | I -0.414 | P -0.376 | W -0.319 | L -0.272 | Y -0.362
S30: I 0.167 | C -0.104 | H -0.209 | E -0.148 | T -0.15 | W -0.686 | Y -0.313 | N -0.142 | M 0.026 | P -0.7 | G -0.135 | D 0.002 | F -0.575 | K -0.307 | R -0.168 | A -0.016 | Q 0.022
V41: G -0.11 | N 0.041 | R 0.149 | W -0.043 | E 0.029 | P 0.036 | I -0.246 | M -0.143 | L -0.034 | Q 0.259 | S -0.051 | A 0.16 | C -0.165 | T 0.064
H36: L -0.523 | G -0.442 | M -0.606 | D -0.399 | S -0.365 | R -0.481 | K -0.558 | A -0.472 | Q -0.303 | Y -1.03 | W -0.781 | E -0.355
W25: L -0.025 | E 0.047 | S 0.068 | K 0.211 | G -0.01 | F 0.023 | I -0.024 | A 0.118 | T 0.094 | R 0.173 | C 0.026 | P -0.008 | H 0.12 | M 0.135 | D 0.067 | V -0.033 | Q 0.12 | N 0.11
C27: P -0.536 | K -1.14 | A -0.755 | L -0.8 | Q -0.969 | G -0.66 | S -1.1 | T -0.882 | R -0.603 | V -1.32 | E -0.863
I23: S -0.579 | N -0.091 | V -0.168 | A -0.463 | L -0.361 | H -0.202 | R -0.34 | Q -0.842 | W -0.483 | G -0.346 | E -0.581
Q31: Y -0.371 | L -0.343 | T -0.045 | V 0.004 | M -0.057 | D -0.228 | K -0.103 | W -0.593 | E -0.159 | P -0.167 | G -0.083 | S -0.031 | A -0.121 | H -0.125 | C -0.095
K21: L -0.283 | Y -0.035 | Q -0.358 | C -0.402 | R 0.086 | E 0.047 | T -0.183 | N -0.034 | D -0.29 | M -0.284 | V 0.086 | A -0.099 | F -0.403 | H -0.136 | W -0.403
E42: T 0.216 | A -0.852 | C -0.426 | Y -0.421 | D 0.094
Q17: H -0.235 | F -0.512 | P -0.297 | C -0.024 | W -0.335 | T -0.086 | L -0.364 | Y -0.406 | E 0.053 | R -0.043 | S -0.316 | M -0.605 | G -0.341 | K 0.248 | V -0.373 | A -0.109 | I 0.376
H37: R 0.002 | S -0.123 | W -0.503 | C -0.17 | L -0.431 | F 0.117 | I -0.032 | V -0.265
F39: G 0.093 | T 0.111 | Y 0.161 | W -0.149 | Q 0.139 | P -0.487 | N 0.041 | K 0.435 | A 0.165 | V 0.117 | R 0.19 | M 0.01
G20: R -0.111 | H -0.225 | E 0.103 | A -0.036 | Q -0.053 | T -0.142 | K -0.284 | S -0.331 | P -0.338 | D 0.202 | V -0.431 | L 0.117
T38: G -0.177 | E -0.265
L40: N 0.115 | C -0.188 | K -0.154 | M 0.207 | D 0.091 | G 0.052 | H -0.062 | T 0.041 | P 0.11 | W -0.112 | Q 0.224 | A 0.169 | V -0.072 | E 0.009
L26: I -0.172 | V -0.05 | Q 0.259 | S -0.059 | G -0.042 | W -0.169 | T -0.011 | E 0.082 | N -0.057 | C -0.155 | P -0.186 | K 0.104 | A -0.029 | Y -0.015 | F -0.517 | H -0.079 | M 0.474 | R 0.084 | D -0.05
E18: T -0.038 | V -0.261 | G -0.434 | A -0.428 | K -0.349 | I -0.364 | W -0.537 | R -0.302 | Q -0.146 | L -1 | H -0.265
V22: W -0.554 | E -0.127 | A -0.047 | Q -0.04 | G -0.019 | R 0.065 | N 0.093
H33: P -0.771 | G -0.643 | C -0.246 | R -0.364 | S -0.28 | M -0.549 | W -0.804 | T -0.685 | A -0.392
C16: W -0.802 | M -0.584 | H -0.337 | D -0.218 | E -0.174 | R -0.354 | K -0.275 | G -0.304 | S -0.286 | A -0.284 | T -0.747 | V -0.451 | N -0.298
D19: A -0.807 | I -0.888 | G -0.757 | S -0.391 | H -0.289 | C 0.627 | R -0.584
R29: K -0.05 | Y -0.24 | H 0.051 | D -0.268 | F -0.458 | S -0.289 | L -0.175 | M -0.121 | E -0.094 | V -0.299 | A -0.331 | I -0.207 | G -0.189 | Q -0.164
G35: D 0.022 | I -0.377 | L -0.202 | R -0.195 | S -0.096 | T -0.079 | M -0.397 | V -0.41 | K -0.244 | P -0.366 | W -0.377 | A -0.116 | Q -0.215
F15: S -0.212 | R -0.112 | T -0.292
R34: E -0.05 | H 0.102 | F 0.058 | S -0.035 | G -0.161 | C -0.14 | P -0.386 | T 0.071 | Q -0.041 | L 0.092 | N -0.058 | K -0.111 | M -0.052 | V 0.035 | Y 0.155 | A -0.007

Source: the Human Domainome abundance scans (Beltran et al. 2025)
